Assay results as given in patent US20250215091A1, “Anti-GAL3 Antibodies and Compositions” (Les Laboratoires Servier, priority 2022, published 2025).

Biological target: T1, recombinant human Gal3 full-length (Hu-Gal3-FL) (Homo sapiens, UniProt P17931)
T1 construct: recombinant human Gal3 full-length (Hu-Gal3-FL); purchased Novalix
Test: SPR (Biacore T-200) affinity on human full-length Gal3
Assay type: binding
Details: full-length Gal3, 25° C.
Procedure: The interaction of the anti-Gal3 antibody with recombinant human Gal3 full-length (Hu-Gal3-FL) and murine Gal3 (m-Gal3-FL) (from Novalix) was monitored by surface plasmon resonance (SPR) detection using a Biacore T-200 instrument.
Binding studies were performed in freshly prepared, filtered and degassed running buffer containing 10 mM HEPES, 150 mM NaCl, and 0.05% P20 (HBS-P, Cytiva Life Sciences) at 25° C. Before performing the binding studies, the CM5 sensor surface immobilized with anti-human Fc mAb was equilibrated with HBS-P by priming the instrument at least three to four times.
The CM5 sensor surface was first immobilized with an anti-human Fc mAb using a standard protocol. The entire sensor surface was first activated by injecting a 1:1 (v/v) mixture of 400 mM EDC and 100 mM NHS at a flow rate of 10 μL/minute for 7 minutes. Monoclonal anti-human Fc antibody (Millipore AP113), 25 μg/mL in Na acetate pH5, 360 s were flowed at 10 μL/minute to reach 10000 RU on both flow cells followed by the injection of 1 M ethanolamine, pH8.5 for 7 minutes at a flow rate of 10 μL/minute. During the entire immobilization procedure, HBS-P was used as the running buffer.
Antibody samples were prepared at 5 μg/ml and were injected for 30 seconds at 10 μL/minute. In general, 400 to 680 resonance units of antibodies were captured on the chip.

T1 sequence (P17931 whole entry): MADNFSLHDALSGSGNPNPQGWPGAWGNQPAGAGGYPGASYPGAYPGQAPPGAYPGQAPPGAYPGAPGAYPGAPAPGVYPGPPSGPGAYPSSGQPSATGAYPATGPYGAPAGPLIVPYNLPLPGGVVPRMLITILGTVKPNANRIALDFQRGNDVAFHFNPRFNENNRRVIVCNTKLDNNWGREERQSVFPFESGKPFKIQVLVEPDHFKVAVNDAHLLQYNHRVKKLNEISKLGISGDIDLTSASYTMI

Kd: 4.9 nM
B1: H10-G1: germline framework variant of H10; Table 3 lists H10-G with VH SEQ ID NO 90, VL SEQ ID NO 91 (antibody, V domains shown)
VH: EVQLVESGGGLVKPGGSLRLSCAASGFTFSNYYMNWVRQAPGKGLEWISYINGASRDISYADSVKGRFTISRDNAKNSLYLQMNSLRAEDTAVYYCVRSSYGYSNYGSGMDVWGRGTLVTVSS
VL: QSALTQPASVSGSPGQSITISCTGTSSDVGGSYNVAWYQQHPGKAPKLMIYNDANRPSGVSNRFSGSKSGNTASLTISGLQAEDEADYYCSSNTADSTRVFGGGTKLEIK
